Reference: publication PMC4652225

Assays:
[1] = biological target: GST-H1.2 wild type (human) (UniProt P16403); assay: pull-down; GST-H1.2 attached to glutathione beads, FITC-conjugated H3 peptides in solution; increasing KCl from 100 to 400 mM (Fig. S1A)
[2] = biological target: Flag-tagged K27-mutated (K27R) H3 (in mononucleosomes) (human) (UniProt P68431); assay: co-IP; MCF7 cells transfected with Flag-H3 WT or K27R; mononucleosomes by MNase digestion, immunoprecipitated with Flag antibody; Western blot with H1.2 antibody (Fig. 2A)

Substance	fold weaker interaction than the H3K27me3 peptide at elevated KCl [1]	fold reduction of the interaction against wild type H3 nucleosomes [2]
FITC-conjugated H3K27me0 peptide	3 fold	–
FITC-conjugated H3K27me1 peptide	3 fold	–
FITC-conjugated H3K27me2 peptide	3 fold	–
linker histone H1.2 (endogenous) (from UniProt P16403 1-213) (natural protein)	–	2.5 fold
